Target: T1, M. tuberculosis HtpG (high-temperature protein G) (M. tuberculosis H37Rv, UniProt P9WMJ7 1-647)
T1 construct: also called mHtpG; Rv2299c; not shown: GST, N-terminal, cleaved
T1 sequence: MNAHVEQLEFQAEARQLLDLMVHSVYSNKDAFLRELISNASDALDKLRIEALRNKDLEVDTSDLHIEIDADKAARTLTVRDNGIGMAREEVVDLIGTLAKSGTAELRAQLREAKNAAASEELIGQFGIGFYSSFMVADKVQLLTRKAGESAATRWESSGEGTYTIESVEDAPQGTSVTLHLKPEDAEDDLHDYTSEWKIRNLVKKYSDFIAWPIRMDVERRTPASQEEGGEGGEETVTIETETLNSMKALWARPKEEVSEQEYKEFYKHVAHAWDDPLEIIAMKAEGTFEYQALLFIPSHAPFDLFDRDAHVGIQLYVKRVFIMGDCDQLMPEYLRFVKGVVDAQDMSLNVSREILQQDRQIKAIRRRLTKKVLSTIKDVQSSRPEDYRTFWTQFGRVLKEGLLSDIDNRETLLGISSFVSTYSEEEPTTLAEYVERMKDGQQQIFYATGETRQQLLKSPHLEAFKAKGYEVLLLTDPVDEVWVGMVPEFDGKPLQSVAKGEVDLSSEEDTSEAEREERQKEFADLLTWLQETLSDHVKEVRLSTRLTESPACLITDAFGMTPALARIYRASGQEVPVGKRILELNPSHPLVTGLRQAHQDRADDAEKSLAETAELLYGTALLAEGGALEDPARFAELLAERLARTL
Assay: BLI
Settings: both partners purified

B1: M. tuberculosis DnaJ2 (natural protein)
chain: MARDYYGLLGVSKNASDADIKRAYRKLARELHPDVNPDEAAQAKFKEISVAYEVLSDPDKRRIVDLGGDPLESAAAGGNGFGGFGGLGDVFEAFFGGGFGGGAASRGPIGRVRPGSDSLLRMRLDLEECATGVTKQVTVDTAVLCDRCQGKGTNGDSVPIPCDTCGGRGEVQTVQRSLLGQMLTSRPCPTCRGVGVVIPDPCQQCMGDGRIRARREISVKIPAGVGDGMRVRLAAQGEVGPGGGPAGDLYVEVHEQAHDVFVREGDHLHCTVSVPMVDAALGVTVTVDAILDGLSEITIPPGTQPGSVITLRGRGMPHLRSNTRGDLHVHVEVVVPTRLDHQDIELLRELKGRRDREVAEVRSTHAAAGGLFSRLRETFTGR
notes: also called Rv2373c; not shown: GST, N-terminal, cleaved
Binder B1 has a Kd of ~200 nM.
